From PMC3740443, “A Novel Function for the Conserved Glutamate Residue in the Walker B Motif of Replication Factor C”

Legend:
[1] = target: PCNA (Saccharomyces cerevisiae) (UniProt P15873); assay: surface plasmon resonance; conditions: cited from earlier work
AF488-labeled PCNA [2] = target: AF488-labeled PCNA (UniProt P15873); assay: other fluorescence titration; PCNA opening (unquenching) assay: fluorescence of 10 nM PCNA-AF488_2 at 517 nm, increasing RFC, 0.5 mM ATP; assay buffer; equilibrium, quadratic fit
MDCC labeled PCNA [3] = target: MDCC labeled PCNA (UniProt P15873); assay: other fluorescence titration; fluorescence intensity of 10 nM PCNA-MDCC at 470 nm, increasing RFC, 0.5 mM ATPγS in place of ATP; assay buffer; equilibrium, quadratic fit
AF488-labeled PCNA [4] = target: AF488-labeled PCNA (UniProt P15873)
AF488-labeled PCNA [5] = target: AF488-labeled PCNA (UniProt P15873); assay: other fluorescence titration; PCNA opening (unquenching) assay: fluorescence of 10 nM PCNA-AF488_2 at 517 nm, increasing RFC, 0.5 mM ATPγS in place of ATP; assay buffer; equilibrium, quadratic fit
MDCC labeled PCNA [6] = target: MDCC labeled PCNA (UniProt P15873); assay: other fluorescence titration; fluorescence intensity of 10 nM PCNA-MDCC at 470 nm, increasing RFC, 0.5 mM ATP; assay buffer 30 mM HEPES-NaOH pH 7.5, 150 mM NaCl, 10 mM MgCl2, 0.5 mM EDTA, 2 mM DTT, 2% glycerol; equilibrium, quadratic fit
AF488-labeled PCNA [7] = target: AF488-labeled PCNA (UniProt P15873); remark: listed apart in the source
[8] = target: RFC clamp loader (WT; Rfc1 N-terminal truncation);PCNA (Saccharomyces cerevisiae;Saccharomyces …, UniProt P38630;P40348;P38629;P40339;P38251;P15873 284-861;1-353;1-340;1-323;1-354;1-258, |); assay: fluorescence anisotropy; 0.5 mM ATPgS; 2 uM PCNA; 20 nM p/t DNA-RhX, 0.5 mM ATPgS, varied RFC, with or without 2 uM PCNA; buffer, salt, pH and temperature not in the material (Section 3.1 text missing); conditions: protein: recombinant;recombinant; tags: Rfc1 N-terminal 6xHis and kinase recognition motif replacing residues 1-283;; copies: 1;1;1;1;1;3; label: X-rhodamine (RhX) on 5' end of template; primer-template: 26 bp duplex with 34 nt 5' template overhang
[9] = target: RFC WB-EA (Walker B Glu to Ala quadruple mutant);PCNA (Saccharomyces cerevisiae;Saccharomyces …, UniProt P38630;P40348;P38629;P40339;P38251;P15873 284-861;1-353;1-340;1-323;1-354;1-258, E425A;E141A;E118A;E115A|); assay: as above; conditions: protein: recombinant;recombinant; tags: Rfc1 N-terminal 6xHis and kinase recognition motif replacing residues 1-283;; copies: 1;1;1;1;1;3; label: X-rhodamine (RhX) on 5' end of template; primer-template: 26 bp duplex with 34 nt 5' template overhang
[10] = target: RFC WB-EQ (Walker B Glu to Gln quadruple mutant);PCNA (Saccharomyces cerevisiae;Saccharomyces …, UniProt P38630;P40348;P38629;P40339;P38251;P15873 284-861;1-353;1-340;1-323;1-354;1-258, E425Q;E141Q;E118Q;E115Q|); assay: as above; conditions: protein: recombinant;recombinant; tags: Rfc1 N-terminal 6xHis and kinase recognition motif replacing residues 1-283;; copies: 1;1;1;1;1;3; label: X-rhodamine (RhX) on 5' end of template; primer-template: 26 bp duplex with 34 nt 5' template overhang
[11] = target: RFC clamp loader (WT; Rfc1 N-terminal truncation) (Saccharomyces cerevisiae, UniProt P38630;P40348;P38629;P40339;P38251 284-861;1-353;1-340;1-323;1-354); assay: fluorescence anisotropy; 0.5 mM ATPgS; no PCNA; 20 nM p/t DNA-RhX, 0.5 mM ATPgS, varied RFC, with or without 2 uM PCNA; buffer, salt, pH and temperature not in the material (Section 3.1 text missing); conditions: protein: recombinant; tags: Rfc1 N-terminal 6xHis and kinase recognition motif replacing residues 1-283; copies: 1;1;1;1;1; label: X-rhodamine (RhX) on 5' end of template; primer-template: 26 bp duplex with 34 nt 5' template overhang
[12] = target: RFC WB-EA (Walker B Glu to Ala quadruple mutant) (Saccharomyces cerevisiae, UniProt P38630;P40348;P38629;P40339;P38251 284-861;1-353;1-340;1-323;1-354, E425A;E141A;E118A;E115A); assay: as above; conditions: protein: recombinant; tags: Rfc1 N-terminal 6xHis and kinase recognition motif replacing residues 1-283; copies: 1;1;1;1;1; label: X-rhodamine (RhX) on 5' end of template; primer-template: 26 bp duplex with 34 nt 5' template overhang
[13] = target: RFC WB-EQ (Walker B Glu to Gln quadruple mutant) (Saccharomyces cerevisiae, UniProt P38630;P40348;P38629;P40339;P38251 284-861;1-353;1-340;1-323;1-354, E425Q;E141Q;E118Q;E115Q); assay: as above; conditions: protein: recombinant; tags: Rfc1 N-terminal 6xHis and kinase recognition motif replacing residues 1-283; copies: 1;1;1;1;1; label: X-rhodamine (RhX) on 5' end of template; primer-template: 26 bp duplex with 34 nt 5' template overhang

PCNA (Saccharomyces cerevisiae), sequence (P15873 whole entry): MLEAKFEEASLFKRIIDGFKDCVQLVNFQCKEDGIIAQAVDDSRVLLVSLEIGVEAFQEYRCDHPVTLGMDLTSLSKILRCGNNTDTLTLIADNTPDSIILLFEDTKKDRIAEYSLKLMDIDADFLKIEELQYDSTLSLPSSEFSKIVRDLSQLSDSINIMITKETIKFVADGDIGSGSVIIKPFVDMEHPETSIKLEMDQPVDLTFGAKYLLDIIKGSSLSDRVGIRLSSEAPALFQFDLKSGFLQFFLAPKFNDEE

Replication factor C (from UniProt P38630)
Kd [1]: 1.3 nM

wild-type replication factor C (RFC) complex, Rfc1 lacking its first 283 residues (from UniProt P38630 284-861; P40348 1-353; P38629 1-340; P40339 1-323; P38251 1-354)
Kd (AF488-labeled PCNA [2]): 11 nM
Kd (MDCC labeled PCNA [3]): 13 nM
PCNA opening: increase of AF488 fluorescence of 10 nM PCNA-AF488 2 at saturating RFC, 0.5 mM ATP (AF488-labeled PCNA [4]): 2 fold
Kd (AF488-labeled PCNA [5]): 5.8 nM
Kd (MDCC labeled PCNA [6]): 7.1 nM
PCNA opening: increase of AF488 fluorescence of 10 nM PCNA-AF488 2 at saturating RFC, 0.5 mM ATPγS (AF488-labeled PCNA [7]): 1.5 fold

B1: p/t DNA-RhX (26/60-mer primed template) (dsDNA)
DNA 1: TTCAGGTCAGAAGGGTTCTATCTCTGTTGGCCAGAATGTCCCTTTTATTACTGGTCGTGT
DNA 2: ACACGACCAGTAATAAAAGGGACATT
modifications: 5' C6 amino linker on the 60-mer template
Kd [8]: 37 ± 13 nM
Kd [9]: 1800 ± 700 nM
Kd [10]: 460 ± 200 nM
Kd [11]: 91 ± 28 nM
Kd [12]: 1060 ± 200 nM
Kd [13]: 690 ± 400 nM
